Consider one molecule from US20140314793A1 (BIOINVENT INTERNATIONAL, published 2014).

Assay [1] concerns the target T1, intercellular cell adhesion molecule-1 (ICAM-1) on the surface of human cells (human, UniProt P05362 28-532).
T1 construct: whole, on cells; Endogenous antigen; also called CD54
The experiment in a line: flow cytometry on patient bone marrow cells. Background: A flow cytometer gives signals particle by particle.

Assay [2] deals with T1, intercellular cell adhesion molecule-1 …. Kind of assay: FACS of bone marrow cells, patient 1.
Assay [3] has the same target. Kind of assay: FACS of bone marrow cells, patient 2.
Assay [4] shares this target. The experiment in a line: FACS of bone marrow cells, patient 6.
Assay [5] has the same target. Kind of assay: FACS of bone marrow cells, patient 10.
For assay [6] the target is unchanged. The experiment in a line: FACS of bone marrow cells, patient 11.
For assay [7] the target is unchanged. The experiment in a line: FACS of bone marrow cells, patient 12.
The target is the same in assay [8]. Kind of assay: FACS of bone marrow cells, patient 15.
The target is the same in assay [9]. The experiment in a line: FACS of bone marrow cells, patient 16.
For assay [10] the target is unchanged. The experiment in a line: FACS of bone marrow cells, patient 17.
Assay [11] shares this target. The experiment in a line: FACS of bone marrow cells, patient 18.
For assay [12] the target is unchanged. The experiment in a line: FACS of bone marrow cells, patient 20.
The target is the same in assay [13]. The experiment in a line: FACS of bone marrow cells, patient 21.
The target is the same in assay [14]. The experiment in a line: FACS of bone marrow cells, patient 22.
For assay [15] the target is unchanged. The experiment in a line: FACS of bone marrow cells, patient 19:1.
Assay [16] has the same target. Kind of assay: FACS of bone marrow cells, patient 19:2.
Assay [17] shares this target. The experiment in a line: FACS of bone marrow cells, patient 19:3.
For another assay, the target named is T2, recombinant ICAM-1 (UniProt P05362 28-480).
T2 construct: also called recombinant ICAM-1 protein
The experiment in a line: ELISA on recombinant ICAM-1, luminescence.

A further assay has as its target T3, ICAM-2 (recombinant) (UniProt P13598 25-223, limits assumed).
T3 sequence (looked up): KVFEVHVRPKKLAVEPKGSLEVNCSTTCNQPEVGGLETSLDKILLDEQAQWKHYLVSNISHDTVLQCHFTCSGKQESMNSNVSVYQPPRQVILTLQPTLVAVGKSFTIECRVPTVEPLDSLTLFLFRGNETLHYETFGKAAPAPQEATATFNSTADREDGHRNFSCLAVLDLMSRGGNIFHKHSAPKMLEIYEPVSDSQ
Kind of assay: dose-dependent binding to recombinant protein (FIG. 12C b).

For the next assay, the target named is T4, ICAM-3 (recombinant) (UniProt P32942 30-485, limits assumed).
T4 sequence (looked up): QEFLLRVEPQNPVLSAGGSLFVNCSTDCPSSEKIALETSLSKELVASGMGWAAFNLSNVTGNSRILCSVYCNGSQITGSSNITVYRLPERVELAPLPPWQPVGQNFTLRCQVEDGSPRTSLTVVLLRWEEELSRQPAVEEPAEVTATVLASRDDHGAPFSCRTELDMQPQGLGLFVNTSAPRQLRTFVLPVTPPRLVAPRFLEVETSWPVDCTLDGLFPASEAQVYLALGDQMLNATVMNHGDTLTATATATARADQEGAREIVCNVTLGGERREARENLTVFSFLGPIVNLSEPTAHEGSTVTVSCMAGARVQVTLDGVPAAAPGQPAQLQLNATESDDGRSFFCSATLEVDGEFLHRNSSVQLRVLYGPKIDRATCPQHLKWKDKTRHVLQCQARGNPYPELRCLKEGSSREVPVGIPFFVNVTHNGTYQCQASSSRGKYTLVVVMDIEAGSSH
The description is as above.

Assay [18] deals with T1, intercellular cell adhesion molecule-1 …. The experiment in a line: flow cytometry on myeloma cells of one patient, relapse versus diagnosis.

T1 sequence (P05362 28-532): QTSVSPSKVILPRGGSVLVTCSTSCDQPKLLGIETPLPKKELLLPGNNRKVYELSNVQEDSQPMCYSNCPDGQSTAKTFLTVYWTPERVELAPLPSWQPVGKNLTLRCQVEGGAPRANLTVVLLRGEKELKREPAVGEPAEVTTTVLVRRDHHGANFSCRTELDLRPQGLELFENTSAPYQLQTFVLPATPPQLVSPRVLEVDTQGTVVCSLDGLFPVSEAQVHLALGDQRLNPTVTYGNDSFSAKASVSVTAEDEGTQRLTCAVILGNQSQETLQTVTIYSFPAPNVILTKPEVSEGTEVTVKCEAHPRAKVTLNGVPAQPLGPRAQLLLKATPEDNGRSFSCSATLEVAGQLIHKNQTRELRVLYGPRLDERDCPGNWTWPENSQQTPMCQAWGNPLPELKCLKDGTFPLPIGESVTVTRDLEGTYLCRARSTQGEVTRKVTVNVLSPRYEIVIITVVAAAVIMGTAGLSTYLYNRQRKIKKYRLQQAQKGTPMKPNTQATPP
T2 sequence (P05362 28-480 limits assumed): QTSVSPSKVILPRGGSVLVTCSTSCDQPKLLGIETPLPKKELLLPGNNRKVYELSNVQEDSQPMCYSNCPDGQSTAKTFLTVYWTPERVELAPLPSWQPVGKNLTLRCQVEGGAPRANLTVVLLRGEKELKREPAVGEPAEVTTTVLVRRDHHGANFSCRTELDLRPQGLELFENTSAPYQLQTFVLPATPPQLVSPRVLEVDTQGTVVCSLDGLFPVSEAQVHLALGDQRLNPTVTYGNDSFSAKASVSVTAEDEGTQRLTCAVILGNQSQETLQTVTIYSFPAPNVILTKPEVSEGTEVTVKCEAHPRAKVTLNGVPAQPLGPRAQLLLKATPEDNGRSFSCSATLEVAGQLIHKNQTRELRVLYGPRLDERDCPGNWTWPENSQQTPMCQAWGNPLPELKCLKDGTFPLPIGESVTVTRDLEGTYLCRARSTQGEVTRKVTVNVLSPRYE

B1: B11 IgG1 (BI-505), fully human anti-ICAM-1 antibody (antibody, V domains shown)
VH: EVQLLESGGGLVQPGGSLRLSCAASGFTFSNAWMSWVRQAPGKGLEWVAFIWYDGSNKYYADSVKGRFTISRDNSKNTLYLQMNSLRAEDTAVYYCARYSGWYFDYWGQGTLVTVSS
VL: QSVLTQPPSASGTPGQRVTISCTGSSSNIGAGYDVHWYQQLPGTAPKLLIYDNNNRPSGVPDRFSGSKSGTSASLAISGLRSEDEADYYCQSYDSSLSAWLFGGGTKLTVL
notes: That 6 is VH and 8 is VL follows only from the order 'VH and VL'; also called IgG B11
Usually EC50 (read off the curve) stands for the concentration needed to bring the measured effect to its halfway point. Take B1: the “fold expression of the epitope, myeloma cells versus normal B cells” value in assay [1] came to 10 fold. Besides, the “fold increase of BI-505 epitope on MM cells compared to normal B cells” value (shortened to “fold increase of BI-505 epitope”) in [2] came out at 55 fold; in assay [3], 8 fold; in [4], 9 fold; in [5] it was 4 fold; in assay [6], 10 fold; in assay [7], 16 fold. For the same molecule, the “fold increase of BI-505 epitope” value is 27 fold in assay [8]; 3 fold in assay [9]; 11 fold in [10]; 8 fold in assay [11]; 27 fold in assay [12]; 4 fold in assay [13]. Also, the “fold increase of BI-505 epitope” value in assay [14] came to 6 fold; in assay [15] it was 10 fold; in assay [16], 6 fold; in assay [17] it was 4 fold. In addition, in the assay with recombinant ICAM-1, the “EC50 (read off the curve)” value was about 0.3 nM. For the same molecule, the binding result with ICAM-2 (recombinant) and in the assay with ICAM-3 (recombinant) was “no binding” in each case. Also, in [18], the “fold expression of the epitope after first relapse” value amounted to 2 fold.
